In PMC10844593:

What was measured:
[1] = molecular target: Flag-tagged human AMPK-α1 fusion protein (human) (UniProt Q13131)
[2] = molecular target: Flag-tagged human AMPK-α2 fusion protein (human) (UniProt P54646)
[3] = molecular target: Flag-tagged human CHREBP fusion protein (human) (UniProt Q9NP71)
Flag-tagged human CHREBP fusion protein (human), sequence (Q9NP71 whole entry, the tested form may be a part): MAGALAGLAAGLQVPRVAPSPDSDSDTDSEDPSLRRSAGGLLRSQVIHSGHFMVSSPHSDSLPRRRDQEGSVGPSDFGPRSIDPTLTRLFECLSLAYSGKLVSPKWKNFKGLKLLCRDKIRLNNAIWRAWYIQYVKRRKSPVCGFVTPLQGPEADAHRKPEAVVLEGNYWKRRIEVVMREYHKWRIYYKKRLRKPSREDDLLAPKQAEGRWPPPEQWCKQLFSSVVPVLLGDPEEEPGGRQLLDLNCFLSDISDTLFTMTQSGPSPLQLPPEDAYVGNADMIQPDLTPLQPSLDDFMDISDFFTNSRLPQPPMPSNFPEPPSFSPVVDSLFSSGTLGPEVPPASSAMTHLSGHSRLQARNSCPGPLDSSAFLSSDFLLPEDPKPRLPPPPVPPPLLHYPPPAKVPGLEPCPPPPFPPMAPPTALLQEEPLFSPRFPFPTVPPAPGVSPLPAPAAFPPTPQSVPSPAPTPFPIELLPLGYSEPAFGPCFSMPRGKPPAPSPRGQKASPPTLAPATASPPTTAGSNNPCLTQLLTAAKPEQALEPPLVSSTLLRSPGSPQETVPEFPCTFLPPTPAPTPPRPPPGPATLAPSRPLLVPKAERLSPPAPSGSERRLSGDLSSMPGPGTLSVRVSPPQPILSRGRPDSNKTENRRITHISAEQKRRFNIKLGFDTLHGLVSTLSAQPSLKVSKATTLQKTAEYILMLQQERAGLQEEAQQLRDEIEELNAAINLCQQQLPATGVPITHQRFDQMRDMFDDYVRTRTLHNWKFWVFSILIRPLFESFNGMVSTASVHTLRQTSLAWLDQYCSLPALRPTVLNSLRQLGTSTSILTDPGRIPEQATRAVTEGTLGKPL

active CDK6/Cyclin D3 kinase, sequence (Q00534 whole entry): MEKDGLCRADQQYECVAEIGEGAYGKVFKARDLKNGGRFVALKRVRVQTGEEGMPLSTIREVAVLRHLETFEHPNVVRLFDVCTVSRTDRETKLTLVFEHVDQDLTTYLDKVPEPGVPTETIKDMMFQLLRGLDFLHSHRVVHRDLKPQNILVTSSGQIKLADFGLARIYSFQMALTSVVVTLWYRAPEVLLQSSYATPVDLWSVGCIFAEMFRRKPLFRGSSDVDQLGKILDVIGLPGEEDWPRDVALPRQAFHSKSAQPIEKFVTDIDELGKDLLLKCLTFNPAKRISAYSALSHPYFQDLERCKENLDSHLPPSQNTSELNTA
active CDK6/Cyclin D3 kinase, sequence (P30281 whole entry): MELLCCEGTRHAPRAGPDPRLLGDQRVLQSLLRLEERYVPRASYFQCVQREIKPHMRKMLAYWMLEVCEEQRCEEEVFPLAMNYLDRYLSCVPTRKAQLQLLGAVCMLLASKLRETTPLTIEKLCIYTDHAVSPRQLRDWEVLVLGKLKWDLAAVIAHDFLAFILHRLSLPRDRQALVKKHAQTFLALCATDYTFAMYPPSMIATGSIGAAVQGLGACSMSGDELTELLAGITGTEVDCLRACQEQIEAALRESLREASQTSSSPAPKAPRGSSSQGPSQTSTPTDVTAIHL
Flag-tagged human AMPK-α1 fusion protein (human), sequence (Q13131 whole entry, the tested form may be a part): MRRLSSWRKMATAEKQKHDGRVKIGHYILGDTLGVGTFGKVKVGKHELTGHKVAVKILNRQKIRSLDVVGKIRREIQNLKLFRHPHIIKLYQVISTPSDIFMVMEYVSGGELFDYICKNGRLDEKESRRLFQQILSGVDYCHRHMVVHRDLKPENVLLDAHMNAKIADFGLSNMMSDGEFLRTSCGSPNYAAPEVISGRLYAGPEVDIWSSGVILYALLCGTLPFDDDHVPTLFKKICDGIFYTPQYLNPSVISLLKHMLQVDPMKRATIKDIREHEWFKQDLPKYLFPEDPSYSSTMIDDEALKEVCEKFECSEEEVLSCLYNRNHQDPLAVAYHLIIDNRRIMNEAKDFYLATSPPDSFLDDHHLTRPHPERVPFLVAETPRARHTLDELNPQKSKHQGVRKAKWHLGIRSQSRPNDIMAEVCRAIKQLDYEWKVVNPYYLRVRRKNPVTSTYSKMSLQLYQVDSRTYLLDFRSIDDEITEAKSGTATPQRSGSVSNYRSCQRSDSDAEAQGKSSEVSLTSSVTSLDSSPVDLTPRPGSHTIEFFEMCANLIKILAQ
Flag-tagged human AMPK-α2 fusion protein (human), sequence (P54646 whole entry, the tested form may be a part): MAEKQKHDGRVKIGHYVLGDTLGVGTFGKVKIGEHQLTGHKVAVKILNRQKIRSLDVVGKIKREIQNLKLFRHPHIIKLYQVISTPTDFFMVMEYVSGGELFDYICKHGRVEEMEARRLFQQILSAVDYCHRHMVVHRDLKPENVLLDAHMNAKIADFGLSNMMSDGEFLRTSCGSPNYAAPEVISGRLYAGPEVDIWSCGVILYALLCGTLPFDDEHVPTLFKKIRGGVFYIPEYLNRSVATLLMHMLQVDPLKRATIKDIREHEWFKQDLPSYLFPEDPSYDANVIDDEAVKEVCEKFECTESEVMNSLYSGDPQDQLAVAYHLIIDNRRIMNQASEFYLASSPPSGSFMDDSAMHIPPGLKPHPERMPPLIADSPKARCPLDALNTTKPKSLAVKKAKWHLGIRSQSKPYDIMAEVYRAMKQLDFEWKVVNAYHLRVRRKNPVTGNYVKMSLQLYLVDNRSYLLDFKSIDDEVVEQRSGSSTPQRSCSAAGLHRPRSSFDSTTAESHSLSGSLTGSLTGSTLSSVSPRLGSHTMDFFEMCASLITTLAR

fold increase in total spectrum counts (TSC) of phosphorylated peptides of the substrate after in vitro kinase reaction with CDK6/D3 (mass spectrometry) [1]: 14.7 fold
fold increase in total spectrum counts (TSC) of phosphorylated peptides of the substrate after in vitro kinase reaction with CDK6/D3 (mass spectrometry) [2]: 46.8 fold
fold increase in total spectrum counts (TSC) of phosphorylated peptides of the substrate after in vitro kinase reaction with CDK6/D3 (mass spectrometry) [3]: 6.43 fold
Substance: active CDK6/Cyclin D3 kinase (from UniProt Q00534 1-326; P30281 1-292) (complex)
